Data on 4 molecules can be found in publication PMC8809517, “Cofactor-independent RNA editing by a synthetic S-type PPR protein”.

Residue numbers refer to the chain shown, from its start.

Assay in all cases: high-throughput RNA pulldown from lysate on Ni-NTA beads; HRP: 50 mM Tris pH 8, 150 mM NaCl, 1 mM beta-mercaptoethanol, 50 ug/ml BSA, 3 ug/ml yeast RNA, 0.5% heparin; ITC and FP: Tris pH 8, 200 mM KCl, 5% glycerol; MST: 50 mM Tris pH 8, 200 mM NaCl, 1 mM DTT, BSA, heparin, 0.05% Tween 20
Details in all cases: tags: N-terminal His-eGFP

For series [1], the target named is T1, GFP-9S library array, motif 4 ND N98T;D124L (synthetic construct, N98T;D124L).
T1 chain: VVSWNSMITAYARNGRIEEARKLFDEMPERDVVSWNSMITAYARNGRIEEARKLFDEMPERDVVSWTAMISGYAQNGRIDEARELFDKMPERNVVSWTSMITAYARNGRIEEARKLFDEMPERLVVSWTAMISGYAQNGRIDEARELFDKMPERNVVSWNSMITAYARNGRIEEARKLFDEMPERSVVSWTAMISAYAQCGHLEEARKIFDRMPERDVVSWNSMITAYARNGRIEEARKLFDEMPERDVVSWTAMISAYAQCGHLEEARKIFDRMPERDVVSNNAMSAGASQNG

The target in series [2] is T2, GFP-9S library array, motif 4 ND N98A (synthetic construct, N98A).
T2 chain: T1 chain with T98A, L124D

Series [3] has as its target T3, GFP-9S library array, motif 4 ND N98Q;D124P (synthetic construct, N98Q;D124P).
T3 chain: T1 chain with T98Q, L124P

Series [4] addresses T4, GFP-9S library array, motif 4 ND N98A;D124Y (synthetic construct, N98A;D124Y).
T4 chain: T1 chain with T98A, L124Y

For series [5], the target named is T5, GFP-9S library array, motif 4 ND N98D;D124K (synthetic construct, N98D;D124K).
T5 chain: T1 chain with T98D, L124K

The Kd is the concentration at which binding is half-saturated. The low end stands for a tighter complex, the high end for a looser complex. For the molecule AUUACACGUGA (ssRNA) [Cy5-rpoA], the Kd in series [1] (label: 5' Cy5) turned out to be 120 nM; in series [2] (label: 5' Cy5) it was 194 nM; in series [3] (label: 5' Cy5), 135 nM; in series [4] (label: 5' Cy5), 82.5 nM; in series [5] (label: 5' Cy5), 154 nM.
For AUUAGACGUGA (ssRNA) [Cy5-rpoA-G], the Kd was 120 nM in series [1] (label: 5' Cy5); 156 nM in series [2] (label: 5' Cy5); 138 nM in series [3] (label: 5' Cy5); 68.5 nM in series [4] (label: 5' Cy5); 134 nM in series [5] (label: 5' Cy5).
With AUUAAACGUGA (ssRNA) [IR-rpoA-A], the equilibrium dissociation constant (Kd) in series [1] (label: 5' IRDye 800CW) was 169 nM; in series [2] (label: 5' IRDye 800CW), 223 nM; in series [3] (label: 5' IRDye 800CW) it was 259 nM; in series [4] (label: 5' IRDye 800CW), 172 nM; in series [5] (label: 5' IRDye 800CW), 334 nM.
As to AUUAUACGUGA (ssRNA) [IR-rpoA-U], the Kd was 174 nM in series [1] (label: 5' IRDye 800CW); 50.8 nM in series [2] (label: 5' IRDye 800CW); 219 nM in series [3] (label: 5' IRDye 800CW); 175 nM in series [4] (label: 5' IRDye 800CW); 475 nM in series [5] (label: 5' IRDye 800CW).
